Data on two molecules can be found in patent US20020160482A1, “Methods for protein purification” (priority 2001, published 2002).

In data set [1] the target is T1, purified SSAO protein (recombinant human SSAO) (Homo sapiens, UniProt Q16853).
T1 construct: residues 29-763 of the human SSAO protein cloned from human aorta cDNA; mutated S. japonicum GST (Cys85/138/178 to Ser) with SQSQ spacer and 3C protease site EALFQG (N, cleaved yes); murine IgG1 heavy chain signal peptide (mutated), followed by an 18 amino acid spacer (N, cleaved yes); made in house; host or cells: HEK293 cells stably transfected with pMB887, protein secreted into the medium
T1 sequence (Q16853 29-763): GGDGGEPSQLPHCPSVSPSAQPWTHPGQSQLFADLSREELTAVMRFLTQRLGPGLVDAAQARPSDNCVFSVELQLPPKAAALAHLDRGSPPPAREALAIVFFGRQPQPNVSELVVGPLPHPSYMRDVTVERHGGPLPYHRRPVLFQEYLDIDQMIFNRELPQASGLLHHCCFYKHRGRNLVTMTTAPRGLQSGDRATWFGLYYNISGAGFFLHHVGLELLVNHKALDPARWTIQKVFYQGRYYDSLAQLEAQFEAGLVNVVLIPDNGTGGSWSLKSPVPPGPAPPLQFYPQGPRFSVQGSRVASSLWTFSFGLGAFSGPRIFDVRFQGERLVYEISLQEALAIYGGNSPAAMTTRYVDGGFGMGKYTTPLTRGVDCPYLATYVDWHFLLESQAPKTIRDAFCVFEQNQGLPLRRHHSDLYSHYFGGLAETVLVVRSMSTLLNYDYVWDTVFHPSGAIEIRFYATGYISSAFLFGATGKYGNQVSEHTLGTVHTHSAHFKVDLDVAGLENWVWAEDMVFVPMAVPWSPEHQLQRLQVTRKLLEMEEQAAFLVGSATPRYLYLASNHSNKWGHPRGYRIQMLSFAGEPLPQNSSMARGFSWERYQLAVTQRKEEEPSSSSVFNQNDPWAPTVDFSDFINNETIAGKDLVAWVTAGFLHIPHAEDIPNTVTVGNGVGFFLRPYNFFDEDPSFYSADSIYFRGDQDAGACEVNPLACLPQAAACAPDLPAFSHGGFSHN
Description: Semicarbazide inhibition of benzylamine oxidase activity (spectrophotometric amine oxidase assay). It is filed as biochemical. Conditions: in the presence of 0.1 mM semicarbazide, read-out: benzylamine oxidase activity inhibited. How it is done: A spectrophotometric assay for monoamine oxidases described by Holt and coworkers (Holt et al., 1997) was used to determine amine oxidase activity in samples from the different purification steps. The assay was performed in 96-well microtiter plates incubated at 37° C. in a SPECTRAmax 250 microplate spectrophotometer (Molecular Devices, Sunnyvale, Calif.). The reagent mix containing 1 mM vanillic acid (Sigma, St. Louis, Mo.), 500 μM 4-aminoantipyrine (Sigma), and 4U ml^−1 peroxidase (type VI from horseradish, Sigma) in 0.2 M potassium phosphate buffer (pH 7.6) was prepared on the same day assays were performed and kept at 5° C. until used. Reactions were started by mixing 50 μl sample, 50 μl reagent mix and 200 μl potassium phosphate buffer with or without 750 μM benzylamine hydrochloride (Sigma) and were performed in triplicate. In order to obtain blank reference values, wells were analyzed with buffer added in place of sample. Absorbance changes were followed at 490 nm for 10-40 minutes. Standard curves were prepared with dilutions of a stock solution of H2O2 in potassium phosphate buffer ranging from 10 nmol/well to 120 nmol/well. When inhibition experiments were carried out, the samples were incubated in 300 μM semicarbazide at 37° C. for 30 minutes, before addition of the benzylamine solution. […]

Data set [2] in a line: Spectrophotometric amine oxidase assay: specific benzylamine oxidase activity of purified proteins. It is filed as biochemical, human. How it is done:
A spectrophotometric assay for monoamine oxidases described by Holt and coworkers (Holt et al., 1997) was used to determine amine oxidase activity in samples from the different purification steps. The assay was performed in 96-well microtiter plates incubated at 37° C. in a SPECTRAmax 250 microplate spectrophotometer (Molecular Devices, Sunnyvale, Calif.). The reagent mix containing 1 mM vanillic acid (Sigma, St. Louis, Mo.), 500 μM 4-aminoantipyrine (Sigma), and 4U ml^−1 peroxidase (type VI from horseradish, Sigma) in 0.2 M potassium phosphate buffer (pH 7.6) was prepared on the same day assays were performed and kept at 5° C. until used. Reactions were started by mixing 50 μl sample, 50 μl reagent mix and 200 μl potassium phosphate buffer with or without 750 μM benzylamine hydrochloride (Sigma) and were performed in triplicate. In order to obtain blank reference values, wells were analyzed with buffer added in place of sample. Absorbance changes were followed at 490 nm for 10-40 minutes. Standard curves were prepared with dilutions of a stock solution of H2O2 in potassium phosphate buffer ranging from 10 nmol/well to 120 nmol/well. When inhibition experiments were carried out, the samples were incubated in 300 μM semicarbazide at 37° C. for 30 minutes, before addition of the benzylamine solution.

Regarding `NNC(N)=O` [semicarbazide], in data set [1], the inhibition at 100 µM was greater than 95%.

B1: SSAO protein: purified soluble recombinant human SSAO (residues 29-763) after removal of the GST fusion partner (protein, listed as Homo sapiens)
chain: GGDGGEPSQLPHCPSVSPSAQPWTHPGQSQLFADLSREELTAVMRFLTQRLGPGLVDAAQARPSDNCVFSVELQLPPKAAALAHLDRGSPPPAREALAIVFFGRQPQPNVSELVVGPLPHPSYMRDVTVERHGGPLPYHRRPVLFQEYLDIDQMIFNRELPQASGLLHHCCFYKHRGRNLVTMTTAPRGLQSGDRATWFGLYYNISGAGFFLHHVGLELLVNHKALDPARWTIQKVFYQGRYYDSLAQLEAQFEAGLVNVVLIPDNGTGGSWSLKSPVPPGPAPPLQFYPQGPRFSVQGSRVASSLWTFSFGLGAFSGPRIFDVRFQGERLVYEISLQEALAIYGGNSPAAMTTRYVDGGFGMGKYTTPLTRGVDCPYLATYVDWHFLLESQAPKTIRDAFCVFEQNQGLPLRRHHSDLYSHYFGGLAETVLVVRSMSTLLNYDYVWDTVFHPSGAIEIRFYATGYISSAFLFGATGKYGNQVSEHTLGTVHTHSAHFKVDLDVAGLENWVWAEDMVFVPMAVPWSPEHQLQRLQVTRKLLEMEEQAAFLVGSATPRYLYLASNHSNKWGHPRGYRIQMLSFAGEPLPQNSSMARGFSWERYQLAVTQRKEEEPSSSSVFNQNDPWAPTVDFSDFINNETIAGKDLVAWVTAGFLHIPHAEDIPNTVTVGNGVGFFLRPYNFFDEDPSFYSADSIYFRGDQDAGACEVNPLACLPQAAACAPDLPAFSHGGFSHN
Consider B1, for which the specific activity in data set [2] (after cleavage, flow-through of second glutathione-Sepharose step (cleavage buffer with DTT)) came to 522 nmol/min/mg; in data set [2] (after removal of GST fusion partner and diafiltration (final product)), 809 nmol/min/mg; in data set [2] (per purification step, nmol of H2O2 produced per minute using 0.5 mM benzylamine as substrate, listed as Diafiltrate), 809 nmol/min/mg; in data set [2] (per purification step, nmol of H2O2 produced per minute using 0.5 mM benzylamine as substrate, listed as GSH-affinity step-2 (flow-through)) it was 522 nmol/min/mg.
